Laboratory results from the nanobody polyreactivity screen of Harvey et al. (2022).

Assay: yeast display, Sf9 membrane polyspecificity reagent, FACS + sequencing; frameworks hold sequencing errors
Outline: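 After 36–48 hours of galactose induction, yeast (Saccharomyces cerevisiae BJ5465) displaying a synthetic nanobody library were stained at 4 °C for 1 hour with 10% biotinylated, detergent-solubilized Sf9 membrane reagent. Streptavidin microbeads enriched the stained cells before FACS sorting into low and high (top ~1%) gates on anti-HA and streptavidin fluorescence. Each clone's polyreactivity label reflects its gate of origin.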

Sequence	polyreactivity (PSR sort gate)
QVQLVESGGGLVQAGGSLRLSCAASGSTFYYYAMGWYRPAPGKEREMVAAINSGGRTNYADSVKGRFTISRDNAKNSVYLQMNSLKPEDTAVYYCAKRTYPYGTYRSVWGYDYWGQGTQVTVSS	low polyreactivity
QVQLVESGGGLVQAGGSLRLSCAASGSTFYYYAMGWYRQAPGKERELVAAISASGDSTYYADSVKGRFTISRDNAKNTVYLQMNSLKPEDTAVYYCAAQYYFYPHEFDYWGQGTQVTVSS	low polyreactivity
QVQLVESGGGLVQAGGSLRLSCAASGSTFYYYAMGWYRQAPGKERELVAAISTSDGSTYYADSVKGRFTISRDNAKNTVYLQMNSLKPEDTAVYYCAAESYERFPSYYYWGQGTQVTVSS	low polyreactivity
QVQLVESGGGLVQAGGSLRLSCAASGSTFYYYAMGWYRQAPGKERELVAAISVRAGITYYADSVKGRFTISRDNAKNTVYLQMNSLKPEDTAVYYCAKDHWTTSYDEGDYWGQGTQVTVSS	low polyreactivity
QVQLVESGGGLVQAGGSLRLSCAASGSTFYYYAMGWYRQAPGKERELVAAISWRCSSTYYADSVKGRFTISRDNAKNTVYLQMNSLKPEDTAVYYCAAGYPGRVSGYLFGTRATYYYWGQGTQVTVSS	high polyreactivity
QVQLVESGGGLVQAGGSLRLSCAASGSTFYYYAMGWYRQAPGKERELVAAITIGGSTNYADSVKGRFTISRDNAKNTVYLQMNSLKPVDTAVYYCAADYRITYARDFDYWGQGTQVTVSS	low polyreactivity
QVQLVESGGGLVQAGGSLRLSCAASGSTFYYYAMGWYRQAPGKERELVAAITSGGSTDYADSVKGRFTISRDNAKNTVYLQMKSLKPEDTAVYYCAKDSQSYTREAYYYWGQGTQVTVSS	low polyreactivity
QVQLVESGGGLVQAGGSLRLSCAASGSTFYYYAMGWYRQAPGKERELVAAITYSGGSTTYADSVKGRFTISRDNAKNTVYLQMNSLKPEDTAVYYCAAYVYRYHRVAYEYWGQGTQVTVSS	high polyreactivity
QVQLVESGGGLVQAGGSLRLSCAASGSTFYYYAMGWYRQAPGKERELVATITSGASTNYADSVKGRFTISRDNAKNTVYLQMNSLKPEDTAVYYSNAGSLTSYLPWSSYDYWGQGTQVTVSS	low polyreactivity
QVQLVESGGGLVQAGGSLRLSCAASGSTFYYYAMGWYRQAPGKERELVAVITRGGGTYYADSVKGRFTISRDNAKNTVYLQMNSLKPEDTAVYYCNARQRSSTRKGYNYWGQGTQVTVSS	high polyreactivity
QVQLVESGGGLVQAGGSLRLSCAASGSTFYYYSMGWYRQAPGKERELVASISDDGSTNYADSVKGRFTISRDNAKNTVYLQMNSLKPEDTAVYYCAAVWWHQFGSAWYQMGYWGQGTQVTVSS	low polyreactivity
QVQLVESGGGLVQAGGSLRLSCAASGSTFYYYTMGWYRQATGKERELVAAITYRGGSTYADSVKGRFTISRDNAKNTVYLQMNSLKPEDTAVYYCAAVRRHPTHYDYWGQGTQVTVSS	high polyreactivity
QVQLVESGGGLVQAGGSLRLSCAASGSTGVYAMGWYRQAPGKERELVADITSGGNTDYADSVKGRFTISRDNAKNTVYLQMTSLKPEDTAVYYCAADDYYVLDYFWFIEYGYWGQGTQVTVSS	high polyreactivity
QVQLVESGGGLVQAGGSLRLSCAASGSTIADNAMGWYRQAPGKERELVAAITRSGVRTYYADSVKGRFTISRDNAKYTVYLQMNSLKPDDSAVYYCAKRTYPSRIYDYWGQGTQVTVSS	low polyreactivity
QVQLVESGGGLVQAGGSLRLSCAASGSTIDRYAMGWYIQAPGKEREFVAAISFSSASTYYADSVKGRFTISRDNAKNTVYLQMNSLKPEDTAVYYCNADFFDSGGSIEYDSWGQGTQVTVSS	low polyreactivity
QVQLVESGGGLVQAGGSLRLSCAASGSTIDWYGMGWYRQAPGKERELVAAINFSDGSTYYADSVKGRFTISRDNAKNTVYLQMNSLKPEDTAVYYCAAYTPSYGGRDYWGQGTQVTVSS	low polyreactivity
QVQLVESGGGLVQAGGSLRLSCAASGSTIDYYAMGWYRQAPGKERELVATISRGGSTNYADSVKGRFTISRDNAKNTVYLQMNSLKPEDTAVYYCAATYARYFYKYYYWGQGTQVTVSS	high polyreactivity
QVQLVESGGGLVQAGGSLRLSCAASGSTIEPNSMGWYRQAPGKEREFVAAITTRGGSTFYADSVKGRFTISRDNAKNTVYLQMNSLKPEDTAVYYCAADYYFVDYDYWGQGTQVTVSS	low polyreactivity
QVQLVESGGGLVQAGGSLRLSCAASGSTIFYNAMGWYSKAPGKERELVAAITDSGGSTYYADSVKGRFTISRDNAKNTVYLQMNSLKPEDTAVYYCAKRNFDNPIFDYWGQGTQVTVSS	low polyreactivity
QVQLVESGGGLVQAGGSLRLSCAASGSTIGDNAMGWYSQAPGKERELVASISWSGASTYYADSVKGRFTISRDNAKNTVYLQMNSLKPEDTAVYYCAVYYSYYSHLYHLLFYYWGQGTQVTVSS	low polyreactivity
QVQLVESGGGLVQAGGSLRLSCAASGSTIIAYAMGWYRQAPGKERELVAAITTGDSTNYADSVKGRFTISRDNAKNTVYLQMNSLKPEDTAVYYCNADATDFHFLSEIGSSQEGDYWGQGTQVTVSS	low polyreactivity
QVQLVESGGGLVQAGGSLRLSCAASGSTIIYNTMGWYRQAPGKERELVARITWSGGSTSYADSVKGRFTISRDNAKNTVYLQMNSLKPEDTAVYYCNRRVQARRYRYDYWGQGTQVTVSS	high polyreactivity

Sequence	polyreactivity (PSR sort gate)
QVQLVESGGGLVQAGGSLRLSCAASGSTIKYYAMGWYRQAPGKDRELVAAINWSGDSTYYADSVKGRFTISRDNAKNTVYLQMHSLKPEETAVYYCAVRYQKRAYYGSNYWGQGTQVTVSS	high polyreactivity
QVQLVESGGGLVQAGGSLRLSCAASGSTILSNAMGWYRQAPGKERELVARITSGGSTHYADSVKGRFTISRDNAKNTVYLQMNSLKPEDTAVYYCNADYWFVEYDYWGQGTQVTVSS	low polyreactivity
QVQLVESGGGLVQAGGSLRLSCAASGSTIPRNALGWYRQATGKERELVPAISSGGSTYYADSVKWRFTISRDNAKNTVYLQMNRLKPEDTAVYYCAARLYWPIIVVDLYGYDYWGQGTQVTVSS	low polyreactivity
QVQLVESGGGLVQAGGSLRLSCAASGSTIQSNGMVWYRQAPGKERELVAAITSTDASTSYADSVKGRFTISRDNAKNTVYLQMNSLKPEDTAVYYCAADFPVASGAELDYWGLGTQVTVSS	low polyreactivity
QVQLVESGGGLVQAGGSLRLSCAASGSTIRFNAMGWYRQAPRKERELVAAISWRGGTTYADSVKGRFTISRDNAKNTVFLQMTSLKPEDTAVYYCAAGLYAQGKRYGYWGHGTQVTVSS	high polyreactivity
QVQLVESGGGLVQAGGSLRLSCAASGSTIRLNAMGWYRQAPGKERELVAAISWTGGSTYYADSVKGRFTISRDNAKNTVYLQMNSLKPEDTAVYYCAADWWQGTSHYWGGAYNYWGQGTQVTVSS	low polyreactivity
QVQLVESGGGLVQAGGSLRLSCAASGSTIRSYAMGWYRQAPGKERELVAVISSGDSTYYADSVKGRFTISRDNAKNTVYLQMNSLKPEDTAVYYCAADSYVLGRWYGYWGQGTQVTVSS	low polyreactivity
QVQLVESGGGLVQAGGSLRLSCAASGSTISGYAMGWYRQAPGKERELVATISRGGSTNYADSVKGRFTISRDNAKNTVYLQMNSLKPEDTAVYNCAAQTYVWWVKYHSWGQGTQVTVSS	low polyreactivity
QVQLVESGGGLVQAGGSLRLSCAASGSTISYYAMGWYRQAPGKERELVAAITRSGGSTYYADSVKGRFTISRDNAKNTFYLQMNSLKPEDTAVYYCAKGWRYFVGWGQRSRYYFWGQGTQVTVSS	high polyreactivity
QVQLVESGGGLVQAGGSLRLSCAASGSTITDYDMGWYRQAPGKERELVAAITSGGSTNYADSVKGRFTISRDNAKNTVYLQMNSLKPEDTAVYYCAAADADRKYDYWGQGTQVTVSS	low polyreactivity
QVQLVESGGGLVQAGGSLRLSCAASGSTITDYTMGWYRQAPGKERELVAVISQSGGSTYYADSVKGRFTISRDNAKNTVYLQMNSLKPEDTAVYYCAARTYWRGYRGQKYDYWGQGTQVTVSS	high polyreactivity
QVQLVESGGGLVQAGGSLRLSCAASGSTIVSYDMGWYRPAPGKDRELVAAITYDGDSTYYADSVKGRFTISRDNAKNTVYLQMNSLKPEDTAVYYCAAEPGDDLKFRGGFEYWGQGTQVTVSS	low polyreactivity
QVQLVESGGGLVQAGGSLRLSCAASGSTIYKYAMGWYRQAPGKERELVAAISGSGGRTYYADSVKGRFTISRDNAKNTVYLQMNSLKPEDTAVYYCAARPKGGPWEHDYWGQGTQVTVSS	high polyreactivity
QVQLVESGGGLVQAGGSLRLSCAASGSTIYPYAMGWYRQAPGKERELVASISGGGSTYYADSVKGRFTISRDNAKNTVYLQMNSLKPEDTAVYYCNAEFDLYWYRYYYWGQGTQVTVSS	high polyreactivity
QVQLVESGGGLVQAGGSLRLSCAASGSTIYSYAMGWYRQAPGKERELVAAISWSGARTYYADSVKGRFTISRDIAKNTVYLQMNSLKPEDTAVYYCAASGYYSSHMDYWGQGTQVTVSS	high polyreactivity
QVQLVESGGGLVQAGGSLRLSCAASGSTIYTYALGWYRQAPGKERELVAAIRGRGGRTYYADSVKGRFTISRDNAKNTVYLQMNSLKPEDTAVYYCNADGYAYYRATTRFDYWGQGTQVTVSS	high polyreactivity
QVQLVESGGGLVQAGGSLRLSCAASGSTIYVKAMGWYRQAPGKEREFVAAITWNSGSTYYADSVKGRFTISRDNAKKTVYLQINSLKPEDTAVYYCAAVLSVLVYGYVYWGQGTQVTVSS	low polyreactivity
QVQLVESGGGLVQAGGSLRLSCAASGSTIYVYAMGWYRHPPGKERELVAAISTAGGRTSYADSVKGRFTISRDNAQNTVYLQMNSLKPEDTAVYYCAARSTLYRSIRYDYWGQGTQVTVSS	high polyreactivity
QVQLVESGGGLVQAGGSLRLSCAASGSTLAGYAMGWYRQAPGKERELVATISWSDGSTSYADSVKGRFTFSRDNAKNTVYLQLNSLKPEDTAVSYCAADAITNYDGRKSRRSYSAYDYWGQGTQVTVSS	low polyreactivity
QVQLVESGGGLVQAGGSLRLSCAASGSTLAQYAMGWYRQAPGKERELVAAISRRGASTYYADSVKGRFTISRDNAKNTGYLQMNSLKPEDTAVYYCNAVRGEKMGYWGQGTQVTVSS	high polyreactivity
QVQLVESGGGLVQAGGSLRLSCAASGSTLASYAMGWYKQAPGKERELVAAISRGGGSTFYADSVKGRFTISRDNAKNTVYLQMNSLKPEDTAVYYCAAFGRYYYIYDYWGQGTQVTVSS	high polyreactivity
